Experimental data from patent publication US20240150495A1 (F STAR BIOTECHNOLOGISCHE FORSCHUNGS UND ENTWICKLUNGSGES M B …, published 2024).

Biological target: T1, Fcab-wt (human, UniProt P01857-1 99-330 = IgG part)
T1 construct: Negative control
Test: ELISA on coated human ανβ3 integrin, HRP labelled protein A
Experimental: For the integrin ELISA, 1 ug/ml human ανβ3 integrin in PBS was coated over night on Maxisorp plates and blocked for 1 h with BSA in PBS containing 1 mM Ca2+. […] Bound Fcabs were detected by HRP labelled protein A and TMB as a substrate.

binding result: no binding (tested: 10 ug/ml)
B1: human ανβ3 integrin (Chemicon) (receptor)
chain 1: FNLDVDSPAEYSGPEGSYFGFAVDFFVPSASSRMFLLVGAPKANTTQPGIVEGGQVLKCDWSSTRRCQPIEFDATGNRDYAKDDPLEFKSHQWFGASVRSKQDKILACAPLYHWRTEMKQEREPVGTCFLQDGTKTVEYAPCRSQDIDADGQGFCQGGFSIDFTKADRVLLGGPGSFYWQGQLISDQVAEIVSKYDPNVYSIKYNNQLATRTAQAIFDDSYLGYSVAVGDFNGDGIDDFVSGVPRAARTLGMVYIYDGKNMSSLYNFTGEQMAAYFGFSVAATDINGDDYADVFIGAPLFMDRGSDGKLQEVGQVSVSLQRASGDFQTTKLNGFEVFARFGSAIAPLGDLDQDGFNDIAIAAPYGGEDKKGIVYIFNGRSTGLNAVPSQILEGQWAARSMPPSFGYSMKGATDIDKNGYPDLIVGAFGVDRAILYRARPVITVNAGLEVYPSILNQDNKTCSLPGTALKVSCFNVRFCLKADGKGVLPRKLNFQVELLLDKLKQKGAIRRALFLYSRSPSHSKNMTISRGGLMQCEELIAYLRDESEFRDKLTPITIFMEYRLDYRTAADTTGLQPILNQFTPANISRQAHILLDCGEDNVCKPKLEVSVDSDQKKIYIGDDNPLTLIVKAQNQGEGAYEAELIVSIPLQADFIGVVRNNEALARLSCAFKTENQTRQVVCDLGNPMKAGTQLLAGLRFSVHQQSEMDTSVKFDLQIQSSNLFDKVSPVVSHKVDLAVLAAVEIRGVSSPDHVFLPIPNWEHKENPETEEDVGPVVQHIYELRNNGPSSFSKAMLHLQWPYKYNNNTLLYILHYDIDGPMNCTSDMEINPLRIKISSLQTTEKNDTVAGQGERDHLITKRDLALSEGDIHTLGCGVAQCLKIVCQVGRLDRGKSAILYVKSLLWTETFMNKENQNHSYSLKSSASFNVIEFPYKNLPIEDITNSTLVTTNVTWGIQPAPMPVPVWVIILAVLAGLLLLAVLVFVMYRMGFFKRVRPPQEEQEREQLQPHENGEGNSET
chain 2: GPNICTTRGVSSCQQCLAVSPMCAWCSDEALPLGSPRCDLKENLLKDNCAPESIEFPVSEARVLEDRPLSDKGSGDSSQVTQVSPQRIALRLRPDDSKNFSIQVRQVEDYPVDIYYLMDLSYSMKDDLWSIQNLGTKLATQMRKLTSNLRIGFGAFVDKPVSPYMYISPPEALENPCYDMKTTCLPMFGYKHVLTLTDQVTRFNEEVKKQSVSRNRDAPEGGFDAIMQATVCDEKIGWRNDASHLLVFTTDAKTHIALDGRLAGIVQPNDGQCHVGSDNHYSASTTMDYPSLGLMTEKLSQKNINLIFAVTENVVNLYQNYSELIPGTTVGVLSMDSSNVLQLIVDAYGKIRSKVELEVRDLPEELSLSFNATCLNNEVIPGLKSCMGLKIGDTVSFSIEAKVRGCPQEKEKSFTIKPVGFKDSLIVQVTFDCDCACQAQAEPNSHRCNNGNGTFECGVCRCGPGWLGSQCECSEEDYRPSQQDECSPREGQPVCSQRGECLCGQCVCHSSDFGKITGKYCECDDFSCVRYKGEMCSGHGQCSCGDCLCDSDWTGYYCNCTTRTDTCMSSNGLLCSGRGKCECGSCVCIQPGSYGDTCEKCPTCPDACTFKKECVECKKFDRGALHDENTCNRYCRDEIESVKELKDTGKDAVNCTYKNEDDCVVRFQYYEDSSGKSILYVVEEPECPKGPDILVVLLSVMGAILLIGLAALLIWKLLITIHDRKEFAKFEEERARAKWDTANNPLYKEATSTFTNITYRGT
notes: Bought from Chemicon; coated at 1 ug/ml on Maxisorp plates; also called alpha-v beta-3 integrin
